These results are taken from the supplement of paper PMC10724198.

± gives the standard deviation of the averaged measurements.
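Further: PSI is a weighted mean of sequencing reads over stability bins, variants kept only with over 10 reads, mCherry proximal and sfGFP distal, peptide attached via GGGS linker.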

The test system of the series is Saccharomyces cerevisiae. The series can be described thus: protein stability index of tFT-peptide fusion (C-terminal peptide) (PSI (0-1 scale)); higher = more stable (slower turnover). The note with it: genetic background: wild type; temperature: 30 C. The protocol:
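Multiplexed protein stability (MPS) profiling in S. cerevisiae. Random 12-aa peptides (tFT-X12 library) are fused to the C-terminus of a sfGFP-mCherry tandem fluorescent timer, after mCherry and a GGGS linker. Cells are FACS-sorted into 8 mCherry/sfGFP bins and deep-sequenced. The protein stability index (PSI) is the read-weighted bin average, scaled from 0 (unstable) to 1 (stable). Only peptides with >10 reads are reported; cells were grown at 30 °C in SC-His with glucose.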
Sequence CSTFFVRSLSFI displayed a protein stability index of 0.63 ± 0.034.

In turn, CSVFFFMGFLFA displayed a protein stability index of 0.511 ± 0.13.

For the sequence CSVRGDVANYAF, the protein stability index is 0.6457 ± 0.0028.

CSVSACTVSLCC registered a protein stability index of 0.5849 ± 0.0017.

For CTCSGELSLRGV, the protein stability index turned out to be 0.684 ± 0.011.

CTLSFRVAFFSL returned a protein stability index of 0.5848 ± 0.00071.

On to CTPSSLRPLMPS, for which the protein stability index stood at 0.655 ± 0.073.

CTRCKRDDYNIE displayed a protein stability index of 0.6803 ± 0.006.

CTRRACDVRAVL: the protein stability index turned out to be 0.699 ± 0.025.

As to CVAAASPFRLLY, the protein stability index came to 0.654 ± 0.04.

Sequence CVAGHPPASPPP showed a protein stability index of 0.712 ± 0.059.

Consider CVFGSHCRVLVV, for which the protein stability index turned out to be 0.556 ± 0.028.

Regarding CVGSLGVVVGWG, the protein stability index was 0.724 ± 0.013.

In the case of CVGSVRYRIRGS, the protein stability index worked out at 0.63 ± 0.06.

As for CVLARVWMRGGR, the protein stability index was found to be 0.636 ± 0.023.

Consider CVLVVGVPAGGG, for which the protein stability index came to 0.611 ± 0.028.

Turning to CVLYQLPPAYSF, the protein stability index was found to be 0.643 ± 0.029.

On to CVQCRRPSEWLV, for which the protein stability index amounted to 0.698 ± 0.033.

CVRARQLTLCIP gave a protein stability index of 0.5505 ± 0.0036.

As to CVSWFWVGYWWG, the protein stability index came to 0.516 ± 0.0086.

Sequence CVTGPIDKLRLL gave a protein stability index of 0.5947 ± 0.0023.

Consider CVVHLLIFGLCI, for which the protein stability index worked out at 0.5963 ± 0.0046.

CVVVSCVCPFVV: the protein stability index came to 0.5739 ± 0.0036.

With CVVYLDVRLPVT, the protein stability index amounted to 0.58 ± 0.023.

Regarding CVYGILPRPPDF, the protein stability index was found to be 0.671 ± 0.035.

With CWVHGRWVSGAS, the protein stability index came out at 0.813 ± 0.051.

CYFLAMPLYFPL showed a protein stability index of 0.622 ± 0.014.

CYIGGEVEFVGW showed a protein stability index of 0.727 ± 0.0094.

CYPIPEGWIGLM came in with a protein stability index of 0.607 ± 0.045.

Regarding DAAVQSGGRVAG, the protein stability index is 0.481 ± 0.03.

In the case of DACRLLGGRRCG, the protein stability index is 0.717 ± 0.07.

In turn, DAGGGKLFGNSK registered a protein stability index of 0.663 ± 0.019.

As to DAPLGDLRAYTT, the protein stability index is 0.747 ± 0.028.

On to DAYLGKRESRLW, for which the protein stability index was 0.615 ± 0.07.

Consider DCSCRRSISVLV, for which the protein stability index was determined as 0.54 ± 0.024.

As for DCVSLFRVPRVA, the protein stability index stood at 0.612 ± 0.028.

DCWAGWGLCGWG yielded a protein stability index of 0.748 ± 0.044.

Regarding DDAVTHTLWVSE, the protein stability index was determined as 0.692 ± 0.012.

In turn, DDDHRKITGTSR gave a protein stability index of 0.707 ± 0.091.

As for DDFQVFCSNGMG, the protein stability index was 0.708 ± 0.018.

DDGRRRAERGGG showed a protein stability index of 0.685 ± 0.047.

As to DDSSSFPSLLSF, the protein stability index came out at 0.753 ± 0.069.

As for DDSVGKLFYCLF, the protein stability index turned out to be 0.7 ± 0.03.

DEDIHQTIGKKG had a protein stability index of 0.716 ± 0.056.

In the case of DEIRGERETKGR, the protein stability index came to 0.656 ± 0.036.

Take DEMNEGHVPPGV: the protein stability index came out at 0.718 ± 0.071.

The sequence DERLNGWERGDV returned a protein stability index of 0.698 ± 0.07.

In the case of DFSPPSPLPLPL, the protein stability index is 0.721 ± 0.01.

Sequence DFVLSASIGFTR registered a protein stability index of 0.673 ± 0.035.

DGFWGGASHQGW came in with a protein stability index of 0.699 ± 0.0089.

Take DGHSAAAFCVRG: the protein stability index was 0.748 ± 0.1.

Sequence DGPSPAASPPRF had a protein stability index of 0.757 ± 0.095.

DGSGPSWGRKGR registered a protein stability index of 0.6942 ± 0.0043.

Sequence DGSLTMTRTGFR gave a protein stability index of 0.704 ± 0.021.

DGVAMCGLKASL had a protein stability index of 0.643 ± 0.1.

Consider DGWTLCRVGCVG, for which the protein stability index was 0.652 ± 0.061.

With DHVSVFSFVCFL, the protein stability index worked out at 0.633 ± 0.015.

In turn, DICFGLLPPWPA yielded a protein stability index of 0.755 ± 0.057.

For DICSNSGRQRFL, the protein stability index was determined as 0.685 ± 0.013.

As for DIERSAAPRLLL, the protein stability index came to 0.727 ± 0.042.

The sequence DIIRKKNKQGRI returned a protein stability index of 0.702 ± 0.035.

Turning to DILLPFQFLDDF, the protein stability index was determined as 0.6927 ± 0.00039.

Sequence DILRSGVYDVCK registered a protein stability index of 0.7251 ± 0.00083.

The sequence DITKNGKSKMLK yielded a protein stability index of 0.664 ± 0.051.
